This data set in a line: amyloid nucleation score (Sup35N fusion, yeast selection) (log enrichment); library NNK2; higher = more nucleation; inactive = no reads after selection. An outline of the steps:
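After 24 hours of induction with 100 μM copper sulfate, psi-negative yeast expressing peptides of 20 random codons fused to Sup35N were grown for 7 days at 30°C on medium lacking adenine and uracil. Input and output plasmid inserts were sequenced with Illumina, and sequences with under 100 input reads were discarded. Scores for nucleation are the DiMSum log enrichment of output over input reads, centred on the mode score of non-aggregating sequences.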

Drawing on the supplement of paper PMC12042874, this text covers amyloid nucleation score for 139 substances.

± gives the uncertainty stated by the source.

The substance GAYNNFIMCKSFVFSFQSGD registered an amyloid nucleation score of 6.33 ± 0.063.

As for KMLCYMYVVTHNVTLRHRLY, the amyloid nucleation score is 0.196 ± 0.42.

Substance YFNNPLFVEDFWLSYVSMSY displayed an amyloid nucleation score of -0.749 ± 0.32.

The substance PVNRQNFFSCD had an amyloid nucleation score of -1.67 ± 0.62.

In turn, FHEDRERGTIFDEFMIFRN displayed an amyloid nucleation score of -0.945 ± 0.76.

The substance ITLTLTVCTGLCWKYGRRMW returned an amyloid nucleation score of 4.49 ± 0.071.

For the substance GAFIMWYTGWVPHVDSGCCL, the amyloid nucleation score is -1.04 ± 1.1.

Regarding ILATSRVILVFCAMCACRWG, the amyloid nucleation score came out at 2.98 ± 0.062.

As for YVIQMYLSEATGCYVFTYFF, the amyloid nucleation score turned out to be 0.368 ± 0.33.

Substance NIKFHVFDLCDSPHGWLPDR displayed an amyloid nucleation score of 0.224 ± 0.56.

In turn, AWRDTHWTASCRSGSRRILS gave an amyloid nucleation score of 4.59 ± 0.046.

On to YNPNCPCICS, for which the amyloid nucleation score turned out to be 6.823 ± 0.026.

The substance GSRYN had an amyloid nucleation score of 0.634 ± 0.54.

VFQIHYMVGNVVCTWSWPNV: the amyloid nucleation score came out at 4.27 ± 0.056.

In turn, EDTMFHNFQWSKAYLCYYWF gave an amyloid nucleation score of -0.294 ± 1.1.

With YWTPISFVY, the amyloid nucleation score is -1.09 ± 0.64.

The substance KCVGYW came in with an amyloid nucleation score of 0.811 ± 0.57.

In turn, FWSRKCSFCFNGASVSGEVM showed an amyloid nucleation score of -0.088 ± 1.1.

GALMMMVEGSESVNKVHFVY had an amyloid nucleation score of -1.05 ± 0.44.

In the case of AGFYHPSNFGCLGSGLLRTM, the amyloid nucleation score entry is “inactive”.

GWVNRIYTRQLECSSLEYFF showed an amyloid nucleation score of 3.17 ± 0.11.

AFMCWSYRS had an amyloid nucleation score of 6.393 ± 0.043.

With FSSEGLRIRKIRQGISISLC, the amyloid nucleation score is -1.21 ± 1.1.

RLSCDTVFMMSFGIICSFFN came in with an amyloid nucleation score of 4.418 ± 0.039.

NIFSWEAVEKARYAHSPLNN yielded an amyloid nucleation score of -1.44 ± 1.1.

KDYPLAGSLVTKL had an amyloid nucleation score of 0.317 ± 0.62.

ILSFM yielded an amyloid nucleation score of -1.27 ± 1.

ILYKYETLMLFLSSEYNVIC displayed an amyloid nucleation score of 3.9 ± 0.039.

Consider LVVSIIRGYLFPCGDPIFLW, for which the amyloid nucleation score result was “inactive”.

Turning to RSCYNFGKGLCVFMTLARLW, the amyloid nucleation score is -0.82 ± 0.48.

In the case of DVIPRVMIKALT, the amyloid nucleation score was 0.063 ± 0.56.

With STMAGTLW, the amyloid nucleation score worked out at 0.051 ± 0.4.

Consider FWEYEPLPPQQMSTFPD, for which the amyloid nucleation score was -0.106 ± 0.79.

Take KFRCASWLCRSTKAWRRCGA: the amyloid nucleation score amounted to 4.75 ± 0.049.

In the case of YRNVPRRMYRCVGISWS, the amyloid nucleation score was determined as 1.13 ± 0.11.

As to TYLWSLGYVSFQL, the amyloid nucleation score was -0.206 ± 0.79.

The substance GSRDHKPWTNRMWFTYTVIR showed an amyloid nucleation score of 0.028 ± 0.17.

CVLTRVFETTSCVSIHLF gave an amyloid nucleation score of -1.64 ± 0.79.

Turning to DRVCAGLKPVRNN, the amyloid nucleation score came to 0.836 ± 0.31.

Regarding YRAGLGALEGSVLHAGKW, the amyloid nucleation score result is “inactive”.

LNNRISNVAAGSSLRIYLMD came in with an amyloid nucleation score of 2.79 ± 0.062.

NCEPELLAVLSRCFSSIWVS showed an amyloid nucleation score of -1.27 ± 0.78.

The substance CKIRNDSSSSRLVIHILDTA returned an amyloid nucleation score of 6.357 ± 0.059.

For the substance VTGIATTS, the amyloid nucleation score came to 0.44 ± 0.3.

Consider IGNRQVDFISDGAG, for which the amyloid nucleation score was found to be 0.034 ± 1.1.

Take TLGREVSKVQNATSFLPMQA: the amyloid nucleation score came out at 0.926 ± 0.29.

On to SSWYHFDFGYCECGSNDGFV, for which the amyloid nucleation score was determined as 0.102 ± 0.79.

FTILTP had an amyloid nucleation score of -0.375 ± 0.79.

The substance GSTKFSRDERIAEGGNRGNK showed an amyloid nucleation score of -0.007 ± 0.3.

SDHLCRYV yielded an amyloid nucleation score of -0.095 ± 1.1.

SWGGLSKGYCLFQSWRVVLG displayed an amyloid nucleation score of 3.75 ± 0.054.

TSFLPELRGLYGRAIVARNY returned an amyloid nucleation score of -1.39 ± 1.1.

In turn, RFEYLFLEEYKLLAMRYLRT had an amyloid nucleation score of -0.986 ± 0.3.

In turn, ITAFTNRVKFWS yielded an amyloid nucleation score of 0.132 ± 0.36.

For CFNVV, the amyloid nucleation score amounted to 0.43 ± 0.49.

The substance AVGNMDVQEGFTTSRADRGL registered an amyloid nucleation score of 0.913 ± 0.21.

SQPHYGRASACRSSSSR displayed an amyloid nucleation score of 0.831 ± 0.51.

VTSGGLEWSRD displayed an amyloid nucleation score of 3.11 ± 0.05.

FILVYTRPTLESLGEWWIRC yielded an amyloid nucleation score of -0.628 ± 0.63.

RCWAAHYVDTWACNSLAVII came in with an amyloid nucleation score of 1.19 ± 0.68.

Substance MGGGNCLVRFKRYEFPFDIP gave an amyloid nucleation score of -1.61 ± 0.54.

Consider ICWPMGICLNNSDSVLLGEC, for which the amyloid nucleation score entry is “inactive”.

For the substance YSCQFFCSVLLCLYVSHITN, the amyloid nucleation score result is “inactive”.

In the case of VFTSFVG, the amyloid nucleation score worked out at 0.536 ± 0.46.

Consider AALELSRNKFSVRIICVLLW, for which the amyloid nucleation score is -0.238 ± 1.1.

For the substance VQVCKMICRFISLWGLLA, the amyloid nucleation score was found to be 0.006 ± 0.44.

Consider PHQKSAY, for which the amyloid nucleation score is -0.284 ± 0.79.

FFSDVIRFWNKHTCKINLLR showed an amyloid nucleation score of -1.33 ± 1.

As to LFDGARINTVNECVYWNS, the amyloid nucleation score result was “inactive”.

Take HDMEYKVMDRIARM: the amyloid nucleation score is -0.501 ± 1.1.

Substance TVSLTWEKYNEQIHA registered an amyloid nucleation score of 0.399 ± 0.74.

With IFRAYIAGKTIYRCDQYVGM, the amyloid nucleation score was -0.539 ± 0.55.

In the case of NVMFF, the amyloid nucleation score stood at 1.28 ± 0.13.

The substance GRVISCVGLTAFNKAVGSCR displayed an amyloid nucleation score of 0.626 ± 0.42.

Substance FYFIIWNSLRPILRLSVAPV came in with an amyloid nucleation score of -0.392 ± 0.61.

Turning to DREVSRVGLD, the amyloid nucleation score amounted to 1.29 ± 0.34.

On to LELVCRPISMSGWSGYHTCR, for which the amyloid nucleation score came to 0.983 ± 0.41.

WVTIALYCNKLIVTVRGGIG: the amyloid nucleation score was -0.029 ± 1.1.

Substance LFDGRNYF returned an amyloid nucleation score of -0.669 ± 0.46.

The substance CLDVLLDKGSADIYFRQSSN gave an amyloid nucleation score of -1.06 ± 0.61.

For the substance DYVMYPGLVAMLSVSTPSQE, the amyloid nucleation score was 0.477 ± 0.49.

DLGIYSLTNFKMLPST showed an amyloid nucleation score of 0.544 ± 0.52.

The substance VYCVDIFCTESLVCPTQTWG came in with an amyloid nucleation score of 6.055 ± 0.06.

In turn, GLFCSLLCLVGAVSEKT had an amyloid nucleation score of 5.26 ± 0.086.

Substance ETCSAVFIN returned an amyloid nucleation score of 0.041 ± 0.62.

For the substance HYSFYLVDYSFNISVGYFCT, the amyloid nucleation score was found to be 0.571 ± 0.39.

Substance CKPRNLLLLSPKPIVLCKDF had an amyloid nucleation score of -1.21 ± 0.79.

The substance VYKMIVSRVHC returned an amyloid nucleation score of -1.17 ± 1.

As for EKRNVVVHLIGRWSTTLYWV, the amyloid nucleation score is 1.25 ± 0.49.

On to SCNQCYFFQEVKRSVLVIKT, for which the amyloid nucleation score came out at 3.59 ± 0.066.

In the case of VAEYGLENDWFLHWQICMNS, the amyloid nucleation score was -0.618 ± 0.48.

IMLLNLYKDGSGGRRSKLLQ had an amyloid nucleation score of -0.09 ± 0.33.

The substance VHRLC came in with an amyloid nucleation score of 1.38 ± 0.47.

MCGKRGLRGWLKSDDVIIWV displayed an amyloid nucleation score of 5.19 ± 0.074.

The substance NYIWVLGYSEVGNTIMYTYH had an amyloid nucleation score of 6.224 ± 0.05.

Substance VDRRNAKYWRGRKSTWVRGV came in with an amyloid nucleation score of 1.3 ± 0.26.

As to KITRWLCYIFTTLL, the amyloid nucleation score is -1.7 ± 1.1.

Substance SGWELRQITFGMTDCIGG yielded an amyloid nucleation score of -0.328 ± 0.42.

KARLIAITHLPRYYWSFGVL gave an amyloid nucleation score of 0.388 ± 0.62.

Turning to SKWYVGRHFPPWPR, the amyloid nucleation score is 0.769 ± 0.24.

As for VWLTKIIGPVRKLVKNTLGC, the amyloid nucleation score was 5.542 ± 0.047.

KCRISAMICDKAIFRVKRAC yielded an amyloid nucleation score of 1.13 ± 0.4.

As to SKCLSIPISCFTCVLLCYFF, the amyloid nucleation score turned out to be 0.936 ± 0.17.

Substance LLCFHTHLRKAMGVTINSIS returned an amyloid nucleation score of -1.19 ± 0.49.

On to QSVNCYNVNSDVCNKVYNDL, for which the amyloid nucleation score was found to be 0.716 ± 0.42.

As to VGRQSCFVYMWCWTYHMWGL, the amyloid nucleation score came out at 1.37 ± 0.32.

The substance FYCSNSYYNVRIDRQNYCQM returned an amyloid nucleation score of 5.501 ± 0.052.

Turning to VGRRSSKYESAELRVGSEVV, the amyloid nucleation score was found to be 1.71 ± 0.12.

Take PQWEKRFKYTNEWAATFNGL: the amyloid nucleation score result is “inactive”.

In the case of HHFNLPMKKGRFVSLGFSLV, the amyloid nucleation score is -0.623 ± 1.

SSWSSNQNSTYTLRSYTALH had an amyloid nucleation score of 5.2 ± 0.069.

As to VRNFYLYVMWPWVQEFY, the amyloid nucleation score is 7.457 ± 0.061.

On to TLAWRSGTRRELKEECNGGW, for which the amyloid nucleation score was 1.19 ± 0.59.

In turn, PCITLAFPVNKSRF gave an amyloid nucleation score of -0.363 ± 1.1.

As to RSLSNMCN, the amyloid nucleation score was -1.24 ± 1.

In turn, LRFPRWSPADGDSILHTTSQ showed an amyloid nucleation score of 0.673 ± 0.66.

The substance WCFCSLLCVSGCLRPDPELP yielded an amyloid nucleation score of 1.28 ± 0.22.

For the substance SYWIADTNRSGNRRLSCGRC, the amyloid nucleation score was found to be 0.266 ± 1.

Turning to GFVERNMYAVDNDFYVQNQT, the amyloid nucleation score is -1.2 ± 0.56.

Substance ARTWGAAIWFMGN displayed an amyloid nucleation score of 4.09 ± 0.093.

For the substance LYHYPS, the amyloid nucleation score result is “inactive”.

With RVIILNTNDGSVEDMYVESQ, the amyloid nucleation score stood at 3.98 ± 0.049.

GEQYATGLP registered an amyloid nucleation score of 5.514 ± 0.039.

The substance VFVEVDVTGFNFRLE showed an amyloid nucleation score of -1.18 ± 0.48.

DLSRTRGTEKASRSVWLRSM displayed an amyloid nucleation score of 3.97 ± 0.048.

Regarding QIFSECRTYDFVLPGYMGYY, the amyloid nucleation score result is “inactive”.

YIVPSKRIWFFGLSSNGDST: the amyloid nucleation score came to 0.102 ± 0.41.

Substance GPDLESFLRVIMQNFHDTKK registered an amyloid nucleation score of -1.54 ± 0.41.

In the case of SFCWRYMCRFVMDSFITVPR, the amyloid nucleation score is -0.423 ± 0.34.

Take QSLHRGR: the amyloid nucleation score was -0.311 ± 1.1.

The substance SARHSRDR yielded an amyloid nucleation score of 2.31 ± 0.066.

In turn, FKPLGTTEGIYTPVMYSYRG returned an amyloid nucleation score of -0.6 ± 0.27.

Regarding EVLTVYFARRFVESSGRGTG, the amyloid nucleation score came out at 2.38 ± 0.13.

In turn, IERRVTWFLTLARCKLPTGQ gave an amyloid nucleation score of 0.796 ± 0.33.

TRDCHYMVGRLMIEWFQSVW showed an amyloid nucleation score of -0.063 ± 0.21.

As for IKSLSMRYFIRLFRY, the amyloid nucleation score entry is “inactive”.

Substance LCGMLYAAAGHWFSVMPPGD returned an amyloid nucleation score of 0.997 ± 0.32.

For the substance MYCYRNFLSDDINRGGALVM, the amyloid nucleation score was -0.998 ± 0.74.

SYHRQRSNTFTAKLQCSRSW returned an amyloid nucleation score of 0.307 ± 0.56.
